Literature values in publication PMC6526119.

Target: Hsp90 (Saccharomyces cerevisiae) (UniProt P02829)

- Kd: 60 nM
Substance: Hsp90 (from UniProt P02829)
